Results on 20 sequences are retold here after the DeepSol protein solubility set.

The series is described as follows: soluble on expression in E. coli; label from the status in PepcDB or PDB records.
As for “MTTQVVNVIGAGLAGSEAAYQIAKRGVQVRLYEMRPVRQTPAHHTDKFAELVCSNSLRANTLTNAVGVIKEEMRLMDSVIIRAADECSVPAGGALAVDRHEFAAKVTEYVKNHPNVTVMNEEITEIPEGPTIIATGPLTSPDLSAQLKELTGEDYFYFYDAAAPIVEKDSIDMNKVYLKSRYDKGEAAYLNCPMTEEEFDRFYEALIAAETVPLKEFEKEIFFEGCMPVEVMASRGRQTLVFGPMKPVGLEDPKTGKTPYAVVQLRQDDAAGTLYNIVGFQTHLKWGPQKEVLQLIPGLENAEIVRYGVMHRNTFINSPNLLRPTYQYKQRDDLFFAGQMTGVEGYVESAASGLLAGINAARLVKGEEPVVLPPVTAMGSMANYITATNAKNFQPMNANFGLFAPLEKKIKKKAERNEAYATRALETIRNFVNILEHHHHHH”, the “soluble on expression in E. coli” value is “soluble”.
The entry for “QVPILHRDADFLLRALQPDDFVRTSRYENANREHLAPWEPLRDPGYFSVDNARARTLLQVASMDEGEALLLLLLDPDDGEVLGRCSYTNIVRGVFQACHLGFSLAAAAQGRGLMARALRVANRYCFEQLGLHRIMASHLPRNARSERLLESLGFEKEGYARAYLKIAGVWEDHVLRALVDAPR” is “not soluble”.
As to “SLDKIEHIGIAVKNLEAGNSLYEKLMGVPHYKIEEVASEGVRTSFFKTGPNKIELLEATNDDSAIAKFIEKKGEGIHHIAFAVENIVEEMERLKKEGFIILNEKPKKGADNKLVAFVHPKTAGGVLIELCQEINEG”, the “soluble on expression in E. coli” value is given as “soluble”.
Take “MTAHRSVLLVVHTGRDEATETARRVEKVLGDNKIALRVLSAEAVDRGSLHLAPDDMRAMGVEIEVVDADQHAADGCELVLVLGGDGTFLRAAELARNASIPVLGVNLGRIGFLAEAEAEAIDAVLEHVVAQDYRVEDRLTLDVVVRQGGRIVNRGWALNEVSLEKGPRLGVLGVVVEIDGRPVSAFGCDGVLVSTPTGSTAYAFSAGGPVLWPDLEAILVVPNNAHALFGRPMVTSPEATIAIEIEADGHDALVFCDGRREMLIPAGSRLEVTRCVTSVKWARLDSAPFTDRLVRKFRLPVIGWRGK”: the “soluble on expression in E. coli” value was “soluble”.
The entry for “MGSDKIHHHHHHQISGDTVKIGFITDMSGLYADIDGPGGVEAIKLAISDMKGTVAGKKIELVYADHQNKADVAASKAREWFDTQGVDMLIGGTNSGTALAMTKVAAEKKKPFIAIGAGTSRISNEDCTPYSIHYAYDTVALANGTGSAVTKAGGKSWYFLTADYAFGQSLQNDTSNVVTKSGGQVLGSVKHPLSASDFSSFLLQAQSSKAQILGLANAGGDTINSIKAANEFGITKTMKLAGLLMFINDIHSLGLNATQGMYMTDSWYWNQSPEARAWSRRFFEKMKRMPSSIQAADYSAAMHFLKAVEAAKTDDGDKVMAQMKAMPINDFYAKGSIRKEDGRGIHDMFLLQVKSQQESTEPWDYFKVVEKIPGEQAFTKLADSKCPLVKK” is “not soluble”; for “MSLGPIIMGQSLKAGIFFRIVTGSASMSSDRADGSSVTYSSNRSGNPDLRLIHYNDVYHVEPGSAEPVGGAPRFQSVINHYRSHPSFDGQPTPLTFFSGDAFNPSLESTVTKGRHMVPFLNKAGTNVACVGNHDLDFGVAQFRHLRNQCQFPWLLANVLDPALGEDVPIANCEKTCMLTSSNGIKVGVIGLGEREWLGTINSLPPDLIYKSASKTAIELVPSLREQGAELIVAVTHQREPNDYKLAESIPYGMIDIILGGHDHFYGHAFLNGVHILRSGTDFKQLSYIEAFRKTDGRGWDFNIVRREGHHHHHH” it is “soluble”; for “MTSPNNDILAAQLSQLGTLRAALAQAVVGQDAVVEQLLIGLLAGGHCLLEGAPGLGKTLLVRSLGQALDLQFRRVQFTPDLMPSDILGTELLEEDHGTGHRHFRFQQGPIFTNLLLADELNRTPPKTQAALLEAMSERTVSYAGTTYALPAPFFVLATQNPIEQAGTYPLPEAQLDRFLLHVRVDYPSEQEERDILTQTTGSASAQVPKVMDAASVQALQQHVRQVHVGAELLTWINRLVRASRPGPQASDEVRQWIKWGAGPRAGQSLVLASKARALLHGRFAATREDVVALAAPVMRHRLLLSFAAEAEQRTADDVVAALLRAVPFPALEHHHHHH” it is “soluble”.
With “MGSDKIHHHHHHMKILITGATGFVGRRLVKSLSEHQLIILTRNINNAKNNLGSHHQYWQTLTDKSDLNDIDAVINLAGEPIVNKRWSNKQKKLICDSRWDITAALTQLISKSTTPPHTFISASAVGYYGRQDQNPVDETSGFHAEFSHDICQKWEDLALQAQSQQTRVCITRIGIVLGKNGGALAKMLPPFKLGLGGPIGSGEQGMSWIHVDDLISLMAYLLSNTDLQGIFNATAPQPVSNAKFAKALGNALNRPAKITTPPLALRLAMGEMSELLTTGQFVLPKRTLAAGFEFKYSDINSALDHITHSAN” the entry was “not soluble”; with “HIWLFFIEEGKNHYRVEFRSNGINVREVALKYGGGGHIQASGAVLKSKRDIIRVVQD”, “not soluble”; with “MQGLELPQSYFNAAAKRQKYAMKPGLSALEKNAVIKAAYRQIFERDITKAYSQSISYLESQVRNGDISMKEFVRRLAKSPLYRKQFFEPFINSRALELAFRHILGRGPSSREEVQKYFSIVSSGGLPALVDALVDSQEYADYFGEETVPYLRGLEHHHHHH”, “not soluble”.
With “MGSDKIHHHHHHMMNQFFEPPRVEALHVQNYRALQNVRLDSITPLTVLLGPNGSGKSTLVDVFAFLSECFGEGLRKAWDRRGRFRELRSRDSVGPIVIELQYREKPGTPLITYHLEIDEKDRGPVVKREFLRWKRTHPGAPFYFLDYREGVGRVITGEQPESQDKRIEKPLSGPDVLAVNTLGQLAENPRVIALRAFITSWHLSYLSADAARGNPEAGAEERLSQTGDNLANVIQYLGEEHPERLNKIFETLKRRVPRIEKVTSRPLDDGRLLLQVKDAPFSSPVLARFASDGTLKMLAYLILLYDPEPPQLIGIEEPENYLHPRLLPELAEECDMASERTQLIVTTHSPFFIDRLRPEQVRVLYRGADGYTRAKRVADMRGIGEFLEAGASLGDLWMEGHFDVGDPLAGEEGA”, the “soluble on expression in E. coli” value is “not soluble”.
Consider “MLKHKIINLIQEKREGSYWDFKAEYHKDKAELLHDIICLSNNLLNQEAYLILGVADNGHILGVAGDSNRKNQEELISFITGKKFAAGRHPKISLMTFEYEEKEIDVIIINPKGYVPYYLERAETDQKSKKNKTVNAGSIYTRVEDKNTPIDSTASPLDTEILWKMHFGLYPTPIKRLQNYLLTPEKWMQNSTGYFHSESPEYIVYKNEDIEEKENYFNLVSPFYAYNQINSNTLYSYYEFKYHSTVLYGCRCISLDSGIYTTPVPELGEINFNMHRDDTIYYRYFIEETMLYNIHLFMYKGDSMEEKFAMDKFLECVLVYKSDVEKELFENYILDNWDKVNQSINENNKRVFGTEHLSQLEKEDITKKVKTVKVLKDELENFRTLEHHHHHH”, for which the “soluble on expression in E. coli” value is recorded as “not soluble”.
On to “MVRESIPKEGENIKIQSYKHDGKIHRVWSETTILKGTDHVVIGGNDHTLVTESDGRTWITREPAIVYFHSEYWFNVICMFREDGIYYYCNLSSPFVCDEEALKYIDYDLDIKVYPNGKYHLLDEDEYEQHMNQMNYPHDIDIILRRNVDILQQWIEQKKGPFAPDFIKVWKERYKKIRQY”, for which the “soluble on expression in E. coli” value is “soluble”.
For the sequence “MFPMNYSLIDLSAIECPESDLFIEGVVLAANLATRPLDPEQWLPELFTEQHQALLQPVTEQIHRQYQLLKGNGYDLLALLAEHAPSRKQGLADFAEGFMQLWPQVEPMWQQGAFADGSIRMLQALLTTLMLAIDEAQTQAQMREAGYEQVPALADLIEQLNLMVHEVALAADEAMLGAKAQSVNPFKGIGRNDACPCDSGKKFKQCCGQ”, the “soluble on expression in E. coli” value was “not soluble”.
For the sequence “SEAWEYFHLAPARAGHHPNQYATCRLCGRQVSRGPGVNVGTTALWKHLKSMHREELEKSGHGQ”, the “soluble on expression in E. coli” value is given as “soluble”.
As for “MEKMHITNQEHDAFVKSHPNGDLLQLTKWAETKKLTGWYARRIAVGRDGEVQGVAQLLFKKVPKLPYTLCYISRGFVVDYSNKEALNALLDSAKEIAKAEKAYAIKIDPDVEVDKGTDALQNLKALGFKHKGFKEGLSKDYIQPRMTMITPIDKNDDELLNSFERRNRSKVRLALKRGTTVERSDREGLKTFAELMKITGERDGFLTRDISYFENIYDALHEDGDAELFLVKLDPKENIAKVNQELNELHAEIAKWQQKMETSEKQAKKAQNMINDAQNKIAKNEDLKRDLEALEKEHPEGIYLSGALLMFAGSKSYYLYGASSNEFRDFLPNHHMQYTMMKYAREHGATTYDFGGTDNDPDKDSEHYGLWAFKKVWGTYLSEKIGEFDYILNQPLYQLIEQVKPRLTKAKIKISRKLKRK”, the “soluble on expression in E. coli” value is “not soluble”.
With “MEELTIWEQHTATLYKDPRRGFGIAVSGGHDRASGSVVVSDVVPGGPAEGRLRTGDHIVMVNGVSVENVTSAFAIQILKTCTKTANVTVKRPRRVQLPATKASPASGHQLSDQEEADHGRGYEGDSSSGSGRSWGERSRRSRAGRRGRVGSHGRRSSGGGSEANGLDLVSGYKRLPKQDVLMRPLKSVLVKRRNSEEFGVKLGSQIFIKHITESGLAARNHGLQEGDLILQINGVSSANLSLSDTRRLIEKSEGELTLLVLRDSGQFLVNIPPAVSDSDSSLMEDISDLTSELSQAPPSHVPPPPLKGQRSPEDSQTDSPVETPQPRRRERSVNSRAIAEPESPGESRYDIYRVPSRQSLEDRGYSPDTRVVSFPKGASIGLRLAGGNDVGIFVSGVQAGSPADGQGIQEGDEILQVNGMPFRNLTREEAVQFLLGLPPGEDMELVTQSKQDIFKKMVQSRVGDSFYIRTHFELEPSPPYGLGFTRGDVFHVVDTLYPGSGPGHGHSSHGGLWLAARMGRDLREQERGVIPNQSRAEQLASLEAAQRAAGVGPGASVGSNPRAEFWRLRGLRRGTKKASTQRSREDLSALTRQGHYPPYERVVLREASFKRPVVILGPVADIAMKKLTTEMPEEFEIAESMSRTDSPSKIIKLDTVRVIAERDKHALLDVTPSAIERLNYVQYYPIVIFCAPESRPALKALREWLAPASRRSSRRLYAQAQKLQKHSGHLFTATIPLHGTSDSWYQEVKAVIQQQQARPIWTAEDQLNSSSEDLDLPGHGLAASSGDLSCDSRTNSDYEDTDGEGAYTDREGGPQDVDEEVAPTALARSSEPVWVDDHQGLMGHGTTITDKWETQADSHYTQDQRRQDSMRTYKHEALRKKFTRARDVESSDDEGYDWGPATDL” the entry was “soluble”; with “RHYPEVKKLVLLSTAVNAMEWPQIIENSKQVITEAKEVTLKNSPMFKRYQKKVTETPWTSTLQFKKMVALAKPVFEHIEIPTFIAQGSADPIVPAEKSVNFLMESIPGPKELFILEGSKHVICQDEQADKLFAAVLTFLQK”, “not soluble”; with “MVFEGHLVGTGLKVGVVVGRFNEFITSKLLGGALDGLKRHGVEENDIDVAWVPGAFEIPLIAKKMANSGKYDAVITLGTVIRGATTHYDYVCNEVAKGVASLSLQTDIPVIFGVLTTETIEQAIERAGTKAGNKGYESAVAAIEMAHLSKHWA”, “not soluble”.
With “MSLESLVPYNETVSTEVQFAKALEKYKFDLLHAKSNFHDQDQEQNTADVNNQHLQTQAQSSSPFDIVQKFADIAAANAYSVLPDQLSSNIDDDVYDQDFTNWDLEMKFWRLVENLNYYRVFCYENEVFGKEKEIGELYAILDWLQYHSAGEREHDQILKDQLGNEDENGNGDEEEKLLGTRSKWINTRLSIENGVYDALSGKNSNDQLIQEMDVDAPLRSGMHVDAKDAELDSKNFQAIYKLVVLGEYTDAIEFANETGNHALAVILAGAISFVEDDDQVMELANEVEGEGNIKLSASTRDKTIWVRLVYKLSKNTNLDPNERLIYSYLSGGDISENLKRASDSYEESINILVRQLLTYSELQKMHLNSFVEFTPPAPQANSMKDILNIVSNSLGSRAAEESRHPVRILMAAIMLDDLDPIISDLNDSTNDNILRILVHASLFLALLRSPQNPEQLNALITLYISKLTENNQTELVPLYLSFIPDERDARETYSLILASITDKEQRRKQLEIAKGISQSHQQSPLPLLQSQPSSHSNEDTEMVPIDDVEQDKLVNVLRRTVERVMDETEEYYNPGNEPFAIVDSGSEGHHHHHH” the entry was “soluble”.
